Test results as given in IntAct's records for PubMed 19478074.

B1: Transforming growth factor-beta-induced protein ig-h3 (Homo sapiens), Q15582 (parent)
chain: MALFVRLLALALALALGPAATLAGPAKSPYQLVLQHSRLRGRQHGPNVCAVQKVIGTNRKYFTNCKQWYQRKICGKSTVISYECCPGYEKVPGEKGCPAALPLSNLYETLGVVGSTTTQLYTDRTEKLRPEMEGPGSFTIFAPSNEAWASLPAEVLDSLVSNVNIELLNALRYHMVGRRVLTDELKHGMTLTSMYQNSNIQIHHYPNGIVTVNCARLLKADHHATNGVVHLIDKVISTITNNIQQIIEIEDTFETLRAAVAASGLNTMLEGNGQYTLLAPTNEAFEKIPSETLNRILGDPEALRDLLNNHILKSAMCAEAIVAGLSVETLEGTTLEVGCSGDMLTINGKAIISNKDILATNGVIHYIDELLIPDSAKTLFELAAESDVSTAIDLFRQAGLGNHLSGSERLTLLAPLNSVFKDGTPPIDAHTRNLLRNHIIKDQLASKYLYHGQTLETLGGKKLRVFVYRNSLCIENSCIAAHDKRGRYGTLFTMDRVLTPPMGTVMDVLKGDNRFSMLVAAIQSAGLTETLNREGVYTVFAPTNEAFRALPPRERSRLLGDAKELANILKYHIGDEILVSGGIGALVRLKSLQGDKLEVSLKNNVVSVNKEPVAEPDIMATNGVVHVITNVLQPPANRPQERGDELADSALEIFKQASAFSRASQRSVRLAPVYQKLLERMKH
partner: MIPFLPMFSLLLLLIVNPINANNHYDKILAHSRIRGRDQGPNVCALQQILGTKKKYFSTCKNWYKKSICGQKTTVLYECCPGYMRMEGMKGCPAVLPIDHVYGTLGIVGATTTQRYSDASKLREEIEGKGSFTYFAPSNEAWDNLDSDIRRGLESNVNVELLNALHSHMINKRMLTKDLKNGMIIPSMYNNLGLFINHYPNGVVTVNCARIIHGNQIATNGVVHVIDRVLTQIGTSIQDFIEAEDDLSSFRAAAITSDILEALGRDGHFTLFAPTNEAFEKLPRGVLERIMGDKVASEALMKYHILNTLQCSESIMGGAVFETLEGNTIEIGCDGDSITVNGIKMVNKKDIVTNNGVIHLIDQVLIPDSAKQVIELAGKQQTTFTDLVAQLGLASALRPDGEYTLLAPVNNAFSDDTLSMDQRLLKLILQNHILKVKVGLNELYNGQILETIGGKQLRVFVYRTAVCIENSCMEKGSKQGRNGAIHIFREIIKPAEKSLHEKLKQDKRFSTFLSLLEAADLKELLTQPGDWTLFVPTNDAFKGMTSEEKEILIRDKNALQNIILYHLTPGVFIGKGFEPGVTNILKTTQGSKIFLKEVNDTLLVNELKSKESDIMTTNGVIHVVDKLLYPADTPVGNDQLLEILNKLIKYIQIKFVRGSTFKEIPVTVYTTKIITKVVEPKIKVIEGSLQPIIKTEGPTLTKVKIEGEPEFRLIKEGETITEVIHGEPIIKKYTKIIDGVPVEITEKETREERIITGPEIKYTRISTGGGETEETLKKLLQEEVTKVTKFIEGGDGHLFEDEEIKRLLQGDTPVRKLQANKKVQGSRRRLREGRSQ

Variants of: B1
Conditions: with postn_human POSTN

Variant	effect of a mutation on the interaction
R124H	disrupting interaction strength
